Patent US20240352140A1 (Janssen / Centocor, published 2024)

How the values were obtained:
recombinant soluble BCMA = target: T1, recombinant soluble BCMA (Homo sapiens (Human), UniProt Q02223 1-54); assay: cell-based or functional assay
T1 sequence: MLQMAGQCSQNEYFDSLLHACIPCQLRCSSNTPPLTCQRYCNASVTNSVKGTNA

[1] = target: T2, cynomolgus monkey BCMA (as used in SPR) (cynomolgus monkey); assay: SPR; column printed 'Binding Affinity to BCMA (nM)', Cyno
T2 construct: also called cyno BCMA

B1: teclistamab (bispecific antibody, human IgG4 S228P, lambda, F234A L235A)
heavy 1: not shown
light 1: SYVLTQPPSVSVAPGQTARITCGGNNIGSKSVHWYQQPPGQAPVVVVYDDSDRPSGIPERFSGSNSGNTATLTISRVEAGDEAVYYCQVWDSSSDHVVFGGGTKLTVLGQPKAAPSVTLFPPSSEELQANKATLVCLISDFYPGAVTVAWKGDSSPVKAGVETTTPSKQSNNKYAASSYLSLTPEQWKSHRSYSCQVTHEGSTVEKTVAPTECS
heavy 2: EVQLVESGGGLVQPGGSLRLSCAASGFTFNTYAMNWVRQAPGKGLEWVARIRSKYNNYATYYAASVKGRFTISRDDSKNSLYLQMNSLKTEDTAVYYCARHGNFGNSYVSWFAYWGQGTLVTVSSASTKGPSVFPLAPCSRSTSESTAALGCLVKDYFPEPVTVSWNSGALTSGVHTFPAVLQSSGLYSLSSVVTVPSSSLGTKTYTCNVDHKPSNTKVDKRVESKYGPPCPPCPAPEAAGGPSVFLFPPKPKDTLMISRTPEVTCVVVDVSQEDPEVQFNWYVDGVEVHNAKTKPREEQFNSTYRVVSVLTVLHQDWLNGKEYKCKVSNKGLPSSIEKTISKAKGQPREPQVYTLPPSQEEMTKNQVSLTCLVKGFYPSDIAVEWESNGQPENNYKTTPPVLDSDGSFLLYSKLTVDKSRWQEGNVFSCSVMHEALHNHYTQKSLSLSLGK
light 2: QTVVTQEPSLTVSPGGTVTLTCRSSTGAVTTSNYANWVQQKPGQAPRGLIGGTNKRAPGTPARFSGSLLGGKAALTLSGVQPEDEAEYYCALWYSNLWVFGGGTKLTVLGQPKAAPSVTLFPPSSEELQANKATLVCLISDFYPGAVTVAWKADSSPVKAGVETTTPSKQSNNKYAASSYLSLTPEQWKSHRSYSCQVTHEGSTVEKTVAPTECS
notes: Humanized IgG4 proline, alanine, alanine (PAA)-based bispecific antibody with one BCMA arm (BCMB69) and one CD3 arm (CD3B219); also called JNJ-64007957; JNJ-957
- cytotoxicity assay with spiked recombinant sBCMA (167 nM), reduction in potency (recombinant soluble BCMA): 2 fold
- Kd [1]: 5.36 to 7.27 nM
